Data reported in US20250388669A1 (published 2025).

B1: Ly2281 (bispecific antibody)
chain 1: QVTLKESGPALVKPTQTLTLTCTFSGFSLSTSGTCVSWIRQPPGKALEWLATICWEDSKGYNPSLKSRLTISKDTSKNQAVLTMTNMDPVDTATYYCARREDSGYFWFPYWGQGTLVTVSSASTKGPSVFPLAPSSKSTSGGTAALGCLVKDYFPEPVTVSWNSGALTSGVHTFPAVLQSSGLYSLSSVVTVPSSSLGTQTYICNVNHKPSNTKVDKKVEPKSCGGGGSGGGGSGGGGSGGGGSQVQLVQSGAEVKKPGASVKVSCKASGYTFAGFEMHWVRQAPGQGLEWMGAIDPKTGGTDYNQKFKDRVTMTRDTSISTAYMELSRLRSDDTAVYYCARDLGYFDVWGQGTLVTVSSGGGGSDKTHTCPPCPAPEAAGPSVFLFPPKPKDTLMISRTPEVTCVVVDVSHEDPEVKFNWYVDGVEVHNAKTKPREEQYNSTYRVVSVLTVLHQDWLNGKEYKCKVSNKALPAPIEKTISKAKGQPREPQVYTLPPSREEMTKNQVSLWCLVKGFYPSDIAVEWESNGQPENNYKTTPPVLDSDGSFFLYSKLTVDKSRWQQGNVFSCSVMHEALHNHYTQKSLSLSPG
chain 2: QVTLKESGPALVKPTQTLTLTCTFSGFSLSTSGTCVSWIRQPPGKALEWLATICWEDSKGYNPSLKSRLTISKDTSKNQAVLTMTNMDPVDTATYYCARREDSGYFWFPYWGQGTLVTVSSASTKGPSVFPLAPSSKSTSGGTAALGCLVKDYFPEPVTVSWNSGALTSGVHTFPAVLQSSGLYSLSSVVTVPSSSLGTQTYICNVNHKPSNTKVDKKVEPKSCGGGGSGGGGSGGGGSGGGGSDIQMTQSPSSLSASVGDRVTITCRASQDIRSNLNWYQQKPGGAVKLLIYYTSRLHSGVPSRFSGSGSGTDYTLTISSLQPEDFATYFCQQSEKLPRTFGGGTKVEIRGGGGSDKTHTCPPCPAPEAAGPSVFLFPPKPKDTLMISRTPEVTCVVVDVSHEDPEVKFNWYVDGVEVHNAKTKPREEQYNSTYRVVSVLTVLHQDWLNGKEYKCKVSNKALPAPIEKTISKAKGQPREPQVYTLPPSREEMTKNQVSLSCAVKGFYPSDIAVEWESNGQPENNYKTTPPVLDSDGSFFLVSKLTVDKSRWQQGNVFSCSVMHEALHNRFTQKSLSLSPG
light: NIQMTQSPSSLSASVGDRVTITCKAGQNVNNYLAWYQQKPGKAPKVLIFNANSLQTGVPSRFSGSGSGTDFTLTISSLQPEDFATYYCQQYNSWPTFGGGTKVEIKRTVAAPSVFIFPPSDEQLKSGTASVVCLLNNFYPREAKVQWKVDNALQSGNSQESVTEQDSKDSTYSLSSTLTLSKADYEKHKVYACEVTHQGLSSPVTKSFNRGEC
notes: PD-1/CD137: two PD-1 Fabs, central CD137 Fv
B2: Ly2409 (bispecific antibody)
chain 1: QVTLKESGPALVKPTQTLTLTCTFSGFSLSTSGTCVSWIRQPPGKALEWLATICWEDSKGYNPSLKSRLTISKDTSKNQAVLTMTNMDPVDTATYYCARREDSGYFWFPYWGQGTLVTVSSASTKGPSVFPLAPSSKSTSGGTAALGCLVKDYFPEPVTVSWNSGALTSGVHTFPAVLQSSGLYSLSSVVTVPSSSLGTQTYICNVNHKPSNTKVDKKVEPKSCGGGGSGGGGSGGGGSGGGGSEVQLVESGGGLVQPGGSLRLSCAASGFTFTNYGLHWVRQAPGKGLEWVSSISPSGGVTYYRDSVKGRFTISRDNSKNTLYLQMNSLRAEDTAVYYCAKPFLGWGGANWIAHWGQGTLVTVSSGGGGSDKTHTCPPCPAPEAAGPSVFLFPPKPKDTLMISRTPEVTCVVVDVSHEDPEVKFNWYVDGVEVHNAKTKPREEQYNSTYRVVSVLTVLHQDWLNGKEYKCKVSNKALPAPIEKTISKAKGQPREPQVYTLPPSREEMTKNQVSLWCLVKGFYPSDIAVEWESNGQPENNYKTTPPVLDSDGSFFLYSKLTVDKSRWQQGNVFSCSVMHEALHNHYTQKSLSLSPG
chain 2: QVTLKESGPALVKPTQTLTLTCTFSGFSLSTSGTCVSWIRQPPGKALEWLATICWEDSKGYNPSLKSRLTISKDTSKNQAVLTMTNMDPVDTATYYCARREDSGYFWFPYWGQGTLVTVSSASTKGPSVFPLAPSSKSTSGGTAALGCLVKDYFPEPVTVSWNSGALTSGVHTFPAVLQSSGLYSLSSVVTVPSSSLGTQTYICNVNHKPSNTKVDKKVEPKSCGGGGSGGGGSGGGGSGGGGSDIQMTQSPSSLSASVGDRVTITCLASEDISNDLAWYQQKPGKAPKLLIYFVDRLLDGVPSRFSGSGSGTDFTLTISSLQPEDFATYYCQQSYKYPPTFGQGTKLEIKGGGGSDKTHTCPPCPAPEAAGPSVFLFPPKPKDTLMISRTPEVTCVVVDVSHEDPEVKFNWYVDGVEVHNAKTKPREEQYNSTYRVVSVLTVLHQDWLNGKEYKCKVSNKALPAPIEKTISKAKGQPREPQVYTLPPSREEMTKNQVSLSCAVKGFYPSDIAVEWESNGQPENNYKTTPPVLDSDGSFFLVSKLTVDKSRWQQGNVFSCSVMHEALHNRFTQKSLSLSPG
light: B1 light
notes: PD-1/CD40: two PD-1 Fabs, central CD40 Fv (TM559)
B3: Ly2396 (bispecific antibody, human IgG1, kappa)
chain 1: QVTLKESGPALVKPTQTLTLTCTFSGFSLSTSGTCVSWIRQPPGKALEWLATICWEDSKGYNPSLKSRLTISKDTSKNQAVLTMTNMDPVDTATYYCARREDSGYFWFPYWGQGTLVTVSSASTKGPSVFPLAPSSKSTSGGTAALGCLVKDYFPEPVTVSWNSGALTSGVHTFPAVLQSSGLYSLSSVVTVPSSSLGTQTYICNVNHKPSNTKVDKKVEPKSCDKTHTCPPCPAPEAAGPSVFLFPPKPKDTLMISRTPEVTCVVVDVSHEDPEVKFNWYVDGVEVHNAKTKPREEQYNSTYRVVSVLTVLHQDWLNGKEYKCKVSNKALPAPIEKTISKAKGQPREPQVYTLPPSREEMTKNQVSLWCLVKGFYPSDIAVEWESNGQPENNYKTTPPVLDSDGSFFLYSKLTVDKSRWQQGNVFSCSVMHEALHNHYTQKSLSLSPGGGGGSGGGGSGGGGSGGGGSQVQLVQSGAEVKKPGASVKVSCKASGYTFAGFEMHWVRQAPGQGLEWMGAIDPKTGGTDYNQKFKDRVTMTRDTSISTAYMELSRLRSDDTAVYYCARDLGYFDVWGQGTLVTVSS
chain 2: QVTLKESGPALVKPTQTLTLTCTFSGFSLSTSGTCVSWIRQPPGKALEWLATICWEDSKGYNPSLKSRLTISKDTSKNQAVLTMTNMDPVDTATYYCARREDSGYFWFPYWGQGTLVTVSSASTKGPSVFPLAPSSKSTSGGTAALGCLVKDYFPEPVTVSWNSGALTSGVHTFPAVLQSSGLYSLSSVVTVPSSSLGTQTYICNVNHKPSNTKVDKKVEPKSCDKTHTCPPCPAPEAAGPSVFLFPPKPKDTLMISRTPEVTCVVVDVSHEDPEVKFNWYVDGVEVHNAKTKPREEQYNSTYRVVSVLTVLHQDWLNGKEYKCKVSNKALPAPIEKTISKAKGQPREPQVYTLPPSREEMTKNQVSLSCAVKGFYPSDIAVEWESNGQPENNYKTTPPVLDSDGSFFLVSKLTVDKSRWQQGNVFSCSVMHEALHNRFTQKSLSLSPGGGGGSGGGGSGGGGSGGGGSDIQMTQSPSSLSASVGDRVTITCRASQDIRSNLNWYQQKPGGAVKLLIYYTSRLHSGVPSRFSGSGSGTDYTLTISSLQPEDFATYFCQQSEKLPRTFGGGTKVEIR
light: B1 light
notes: PD-1/CD137: two PD-1 Fabs, terminal CD137 Fv
B4: Ly2405 (bispecific antibody, human IgG1, kappa)
chain 1: not shown
chain 2: QVTLKESGPALVKPTQTLTLTCTFSGFSLSTSGTCVSWIRQPPGKALEWLATICWEDSKGYNPSLKSRLTISKDTSKNQAVLTMTNMDPVDTATYYCARREDSGYFWFPYWGQGTLVTVSSASTKGPSVFPLAPSSKSTSGGTAALGCLVKDYFPEPVTVSWNSGALTSGVHTFPAVLQSSGLYSLSSVVTVPSSSLGTQTYICNVNHKPSNTKVDKKVEPKSCDKTHTCPPCPAPEAAGPSVFLFPPKPKDTLMISRTPEVTCVVVDVSHEDPEVKFNWYVDGVEVHNAKTKPREEQYNSTYRVVSVLTVLHQDWLNGKEYKCKVSNKALPAPIEKTISKAKGQPREPQVYTLPPSREEMTKNQVSLSCAVKGFYPSDIAVEWESNGQPENNYKTTPPVLDSDGSFFLVSKLTVDKSRWQQGNVFSCSVMHEALHNRFTQKSLSLSPGGGGGSGGGGSGGGGSGGGGSDIQMTQSPSSVSASVGDRVTITCRASQGIYSWLAWYQQKPGKAPNLLIYTASTLQSGVPSRFSGSGSGTDFTLTISSLQPEDFATYYCQQANIFPLTFGGGTKVEIK
light: B1 light
notes: PD-1/CD40: two PD-1 Fabs, terminal CD40 Fv (TM383)
B5: Ly2280 (bispecific antibody)
chain 1: not shown
chain 2: QVTLKESGPALVKPTQTLTLTCTFSGFSLSTSGTCVSWIRQPPGKALEWLATICWEDSKGYNPSLKSRLTISKDTSKNQAVLTMTNMDPVDTATYYCARREDSGYFWFPYWGQGTLVTVSSASTKGPSVFPLAPSSKSTSGGTAALGCLVKDYFPEPVTVSWNSGALTSGVHTFPAVLQSSGLYSLSSVVTVPSSSLGTQTYICNVNHKPSNTKVDKKVEPKSCGGGGSGGGGSGGGGSGGGGSDIQMTQSPSSVSASVGDRVTITCRASQGIYSWLAWYQQKPGKAPNLLIYTASTLQSGVPSRFSGSGSGTDFTLTISSLQPEDFATYYCQQANIFPLTFGGGTKVEIKGGGGSDKTHTCPPCPAPEAAGPSVFLFPPKPKDTLMISRTPEVTCVVVDVSHEDPEVKFNWYVDGVEVHNAKTKPREEQYNSTYRVVSVLTVLHQDWLNGKEYKCKVSNKALPAPIEKTISKAKGQPREPQVYTLPPSREEMTKNQVSLSCAVKGFYPSDIAVEWESNGQPENNYKTTPPVLDSDGSFFLVSKLTVDKSRWQQGNVFSCSVMHEALHNRFTQKSLSLSPG
light: B1 light
notes: PD-1/CD40: two PD-1 Fabs, central CD40 Fv (TM383)
B6: Ly2280 (bispecific antibody)
heavy 1: not shown
heavy 2: B5 chain 2
light: B1 light
notes: PD-1 Fabs (Ly516) x central CD40 Fv (TM383)

Target: T1, PD-1 (human, UniProt Q15116 25-167, limits assumed)
T1 construct: The reporter assay used Jurkat T cells expressing human PD-1
Test: FCM or ELISA

T1 sequence (Q15116 25-167 limits assumed): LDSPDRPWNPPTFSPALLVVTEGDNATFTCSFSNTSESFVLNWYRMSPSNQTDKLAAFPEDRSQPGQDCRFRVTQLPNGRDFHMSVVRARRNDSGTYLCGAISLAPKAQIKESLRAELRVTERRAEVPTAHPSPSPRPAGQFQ

binding result	Binder
binds	B1
binds	B2
binds	B3
binds	B4
binds	B5

Target: PD-1 (binding assay) (UniProt Q15116 25-167, limits assumed)
Test: FCM or ELISA, graded

Chain of PD-1 (binding assay) (Q15116 25-167 limits assumed): as above

binding result	Binder
binds	B6
